We go through 28 sequences from the Immune Epitope Database (IEDB).

Among the targets are HLA-A*68:01; HLA-A*33:01; HLA-A*31:01; HLA-A*03:01; HLA-A*11:01.
Holding throughout (assay): IEDB peptide-MHC binding, purified MHC/competitive/radioactivity; filed as Kd, often an IC50 or EC50 that approximates it; ≥ and ≤ were set here for values at or beyond the usual limits of such assays
The mark [1] stands for this setting: source organism: Dengue virus 2 Jamaica/1409/1983.
Setting [2] is: source organism: Dengue virus 4 Philippines/H241/1956.
Setting [3] is: source organism: Vaccinia virus WR.
Setting [4] is: source organism: Mammarenavirus brazilense.
Setting [5] is: source organism: Dengue virus 3 Martinique/1243/1999.
The mark [6] stands for this setting: source organism: SARS coronavirus Tor2.
Setting [7] is: source organism: Lassa virus GA391.

Some results are limits rather than exact numbers.

With VAAEMEEALR, the dissociation constant Kd – broadly, the free concentration of one partner at which half of the binding sites on the other are occupied at equilibrium, for simple one-to-one binding – with HLA-A*68:01 (setting [1]) turned out to be 128 nM.

As to EFWKLVDRER, the Kd with HLA-A*33:01 (source organism: Dengue virus 3 Sri Lanka/1266/2000) was 2.92 nM.

Take KKKNPRLCTR: the Kd in the experiment with HLA-A*31:01 (setting [2]) came to 1040 nM.

On to TFKIDAVRY, for which the equilibrium dissociation constant (Kd) is not below 78000 nM with HLA-A*03:01 (setting [3]); 18900 nM with HLA-A*11:01 (setting [3]); not below 34900 nM in the experiment with HLA-A*31:01 (setting [3]); not below 77700 nM in the experiment with HLA-A*33:01 (setting [3]); 1900 nM in the experiment with HLA-A*68:01 (setting [3]).

With QSVLCVKKFY, the Kd was 1370 nM in the experiment with HLA-A*03:01 (setting [3]); 13200 nM with HLA-A*11:01 (setting [3]); 15600 nM in the experiment with HLA-A*31:01 (setting [3]); not below 24500 nM with HLA-A*33:01 (setting [3]); 5670 nM with HLA-A*68:01 (setting [3]).

With LMIVARHER, the values for the Kd with HLA-A*31:01 (setting [2]) and with HLA-A*33:01 (setting [2]) were 5.18 nM and 116 nM, respectively.

As for ELYVSSSYK, the Kd is 0.73 nM in the experiment with HLA-A*03:01 (setting [3]); 12.4 nM in the experiment with HLA-A*11:01 (setting [3]); not below 77900 nM with HLA-A*31:01 (setting [3]); not below 54200 nM with HLA-A*33:01 (setting [3]); 6.71 nM with HLA-A*68:01 (setting [3]).

ETTMRGAKR: the values for the equilibrium dissociation constant (Kd) with HLA-A*33:01 (setting [1]) and with HLA-A*68:01 (setting [1]) were 117 nM and 35.8 nM, respectively.

On to VSAQNISFK, for which the dissociation constant (Kd) was 14.6 nM with HLA-A*03:01 (setting [3]); 9.62 nM in the experiment with HLA-A*11:01 (setting [3]); 1570 nM with HLA-A*31:01 (setting [3]); not below 33900 nM with HLA-A*33:01 (setting [3]); 70.6 nM in the experiment with HLA-A*68:01 (setting [3]).

Take RTRLYDYFTR: the Kd in the experiment with HLA-A*03:01 (setting [3]) amounted to 6060 nM; with HLA-A*11:01 (setting [3]), 991 nM; in the experiment with HLA-A*31:01 (setting [3]) it was 0.7 nM; with HLA-A*33:01 (setting [3]), 1630 nM; in the experiment with HLA-A*68:01 (setting [3]), 1450 nM.

For NLTETFRDY, the equilibrium dissociation constant (Kd) with HLA-A*03:01 (setting [3]) is not below 78000 nM; with HLA-A*11:01 (setting [3]) it was not below 77900 nM; with HLA-A*31:01 (setting [3]), not below 77900 nM; with HLA-A*33:01 (setting [3]), not below 77700 nM; with HLA-A*68:01 (setting [3]), not below 37400 nM.

As to LILAEYIRHR, the dissociation constant Kd with HLA-A*03:01 (setting [3]) was determined as 2190 nM; in the experiment with HLA-A*11:01 (setting [3]), 738 nM; in the experiment with HLA-A*31:01 (setting [3]) it was 80.4 nM; in the experiment with HLA-A*33:01 (setting [3]), 5390 nM; with HLA-A*68:01 (setting [3]), 1730 nM.

As to TIKYSNDNRY, the Kd in the experiment with HLA-A*03:01 (setting [3]) was not below 20600 nM; with HLA-A*11:01 (setting [3]), 8860 nM; with HLA-A*31:01 (setting [3]), not below 29900 nM; in the experiment with HLA-A*33:01 (setting [3]), not below 70000 nM; in the experiment with HLA-A*68:01 (setting [3]), 956 nM.

Consider DNQKLSYLK, for which the equilibrium dissociation constant (Kd) with HLA-A*03:01 (setting [4]) was not below 78000 nM; in the experiment with HLA-A*31:01 (setting [4]) it was 2650 nM; in the experiment with HLA-A*33:01 (setting [4]), 8370 nM; in the experiment with HLA-A*68:01 (setting [4]) it was 7480 nM.

For TLLVWHTWQK, the Kd with HLA-A*03:01 (setting [5]) came to 45.5 nM.

For EILRNYLRLY, the Kd with HLA-A*03:01 (setting [3]) was 489 nM; with HLA-A*11:01 (setting [3]), 2110 nM; in the experiment with HLA-A*31:01 (setting [3]) it was 3460 nM; in the experiment with HLA-A*33:01 (setting [3]), 123 nM; with HLA-A*68:01 (setting [3]), 512 nM.

Turning to RTFNEDLFR, the equilibrium dissociation constant (Kd) in the experiment with HLA-A*03:01 (setting [3]) came out at 73.5 nM; in the experiment with HLA-A*11:01 (setting [3]) it was 15.1 nM; with HLA-A*31:01 (setting [3]), 17.6 nM; with HLA-A*33:01 (setting [3]), 1570 nM; in the experiment with HLA-A*68:01 (setting [3]), 22.3 nM.

For YFSFKKCLVY, the Kd in the experiment with HLA-A*03:01 (setting [3]) came out at 33 nM; with HLA-A*11:01 (setting [3]), 107 nM; with HLA-A*31:01 (setting [3]) it was 2780 nM; with HLA-A*33:01 (setting [3]), 9060 nM; in the experiment with HLA-A*68:01 (setting [3]), 578 nM.

As to DAEACYIYK, the Kd in the experiment with HLA-A*03:01 (setting [3]) is 1350 nM; in the experiment with HLA-A*11:01 (setting [3]) it was 57.5 nM; with HLA-A*31:01 (setting [3]), 208 nM; in the experiment with HLA-A*33:01 (setting [3]), 234 nM; in the experiment with HLA-A*68:01 (setting [3]) it was 49.2 nM.

Turning to SILARRPTPK, the dissociation constant Kd was 1.08 nM with HLA-A*03:01 (setting [3]); 1.44 nM with HLA-A*11:01 (setting [3]); 372 nM with HLA-A*31:01 (setting [3]); 12300 nM in the experiment with HLA-A*33:01 (setting [3]); 147 nM in the experiment with HLA-A*68:01 (setting [3]).

With DTRTPKAKR, the dissociation constant (Kd) with HLA-A*33:01 (source organism: Dengue virus 1 Singapore/S275/1990) came out at 93.7 nM.

Consider YLKNYKNFDY, for which the dissociation constant (Kd) in the experiment with HLA-A*03:01 (setting [3]) is 4070 nM; with HLA-A*11:01 (setting [3]) it was 2490 nM; with HLA-A*31:01 (setting [3]), 1540 nM; with HLA-A*33:01 (setting [3]), not below 70000 nM; with HLA-A*68:01 (setting [3]), 7290 nM.

SLIKFISDNK: the Kd with HLA-A*03:01 (setting [3]) is 14.9 nM; with HLA-A*11:01 (setting [3]) it was 23.7 nM; in the experiment with HLA-A*31:01 (setting [3]), 2650 nM; in the experiment with HLA-A*33:01 (setting [3]) it was not below 70000 nM; with HLA-A*68:01 (setting [3]) it was 69.1 nM.

For the sequence SSYSLFDMSK, the equilibrium dissociation constant (Kd) in the experiment with HLA-A*03:01 (setting [6]) is 18 nM; in the experiment with HLA-A*11:01 (setting [6]), 3.25 nM; with HLA-A*31:01 (setting [6]) it was 253 nM; in the experiment with HLA-A*33:01 (setting [6]), 10100 nM; with HLA-A*68:01 (setting [6]), 42.2 nM.

Take ENAVWDQFK: the dissociation constant (Kd) with HLA-A*03:01 (setting [7]) was not below 31500 nM; in the experiment with HLA-A*11:01 (setting [7]) it was 15100 nM; in the experiment with HLA-A*31:01 (setting [7]) it was not below 77900 nM; in the experiment with HLA-A*33:01 (setting [7]) it was 1020 nM; with HLA-A*68:01 (setting [7]), 250 nM.

In the case of LMPILTLTR, the Kd with HLA-A*03:01 (setting [6]) came out at 102 nM; in the experiment with HLA-A*11:01 (setting [6]), 1130 nM; with HLA-A*31:01 (setting [6]), 723 nM; in the experiment with HLA-A*33:01 (setting [6]) it was 15000 nM; with HLA-A*68:01 (setting [6]), 1720 nM.

Consider KMAVEVGSIR, for which the Kd is 4540 nM with HLA-A*03:01 (setting [3]); not below 21100 nM with HLA-A*11:01 (setting [3]); 1670 nM with HLA-A*31:01 (setting [3]); 13700 nM with HLA-A*33:01 (setting [3]); 95.8 nM with HLA-A*68:01 (setting [3]).

Regarding GTILIKVEYK, the Kd with HLA-A*11:01 (setting [5]) was found to be 69.2 nM; with HLA-A*68:01 (setting [5]), 38.2 nM.
